From the RNAGym collection of RNA variant scans (doi:10.1073/pnas.2313332121)
This sample holds only a part of the variants without activity.

B1: TPR 5TU (parent)
chain: GGAUCUUCUCGAUCUAACAAAAAAGACAAAUCUGCCACAAAGCUUGAGAGCAUCUUCGGAUGCAGAGGCGGCAGCCUUCGGUGGCGCGAUAGCGCCAACGUUCUCAACUAUGACACGCAAAACGCGUGCUCCGUUGAAUGGAGUUUAUCAUG

Variants of: B1
Test: polymerase ribozyme fitness, log enrichment relative to wild type (log ratio); higher = more active; in vitro selection for triplet polymerase activity
Method in brief: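 Input and output libraries were sequenced on Illumina after a single in vitro selection round, run in triplicate on PCR-built, transcribed mutant libraries of each subunit of a heterodimeric triplet polymerase ribozyme. Selection annealed libraries to a biotinylated primer, the partner subunit and triplets, incubated them frozen at −7 °C, then gel-excised extended constructs for streptavidin-bead capture and RT-PCR. Genotypes with ≥10 input reads and ≥1 read per output were kept. Fitness is the logarithm, taken in base 2, of genotype enrichment divided by wild-type enrichment, using inverse-variance-weighted replicate averages.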

| Variant | polymerase ribozyme fitness (log ratio) |
| --- | --- |
| A22U C123G | -0.0344 |
| A22U C38U C57U G94C G126U | -0.0445 |
| A23G A29U U61G C99U | ≤ -4.2 |
| A22U U45A G68A A122G G140U U146A | ≤ -4.2 |
| A22G G83A A91U G100U | ≤ -4.2 |
| A22U U144A | 0.777 |
| A22U C54U G92U A147U | 0.944 |
| A22G A40G A52C C75U C99A A107G C108U U134A | ≤ -4.2 |
| A22U C87U G141U | 1.15 |
| A22G U55G C57U G84U C85A | -0.696 |
| A22U C93A | -2.34 |
| A22U U56A G84A G136C | -3.75 |
| A23C C43A C54U A73U C99G | ≤ -4.2 |
| A23C G46C A47G G84U C87A C93U U109G | ≤ -4.2 |
| A22U C32G U134C | ≤ -4.2 |
| A22U U61A C96U | -0.569 |
| A22U A28G | -3.35 |
| A22G C54U G58A G59A C103G | -1.91 |
| A23C C43A A52U A119C U135G U139A G140A A142G | ≤ -4.2 |
| A22G C36G G81U A89C A97C C116A | ≤ -4.2 |
| A22C G84A G136C C149A | ≤ -4.2 |
| A22U U127A | -3.54 |
| A22G G83A C105A | -3.83 |
| A22U A29G G70A | ≤ -4.2 |

| Variant | polymerase ribozyme fitness (log ratio) |
| --- | --- |
| A22U A39U A40C A66C C105U | ≤ -4.2 |
| A23G A24U C27G U55A G92U | -3.98 |
| A23G A41C U90G A110G | ≤ -4.2 |
| A22G C32U A37G A41C G71A C95U C96G U139C | ≤ -4.2 |
| A22U U31C C32U | -3 |
| A22U A28U C57U U77G C85G G92U | ≤ -4.2 |
| A22U U56A C93G A98G C108A C114G U151A | ≤ -4.2 |
| A23C C27U A30G C93G U101A U104G A107U | ≤ -4.2 |
| A22U A26G A28C A37U U56A C96U A98U | ≤ -4.2 |
| A22C G46C G83C | -3.01 |
| A22U C149U | 0.0648 |
| A23C C87U G112U | -3.99 |
| A22G G58A A120G C123A C129G | -3.06 |
| A22G G88A C96U | ≤ -4.2 |
| A22G C108G C123G A150G | ≤ -4.2 |
| A22G C85G A150G | -3.09 |
| A23C G25A U55A U61G G68A G92U A97U G124A G128C | ≤ -4.2 |
| A22G C76U | 0.868 |
| A22U A26G A49U U102C A138G U144A | ≤ -4.2 |
| A22G C85U C95G U135G | -3.76 |
| A23C A24G A28C C63U G67A A121U U144A | ≤ -4.2 |
| A22U G34A G62C G68C C96A | ≤ -4.2 |
| A22U C103G A110C | ≤ -4.2 |
| A22G A41C G50A C95U U101G | -1.78 |

| Variant | polymerase ribozyme fitness (log ratio) |
| --- | --- |
| A22U G86U A120U | -1.56 |
| A22U G58A A60C U111A | ≤ -4.2 |
| A22G G86C | -1.67 |
| A23G C38U U61A | ≤ -4.2 |
| A22G A41C G62U C93A C95U C105A G112U C123G U134C G140A G141U | ≤ -4.2 |
| A22U U56G | -0.902 |
| A23C G42U A137U | ≤ -4.2 |
| A22U A37G A41G G48C G94U | ≤ -4.2 |
| A22U G81A A106C G128A U139C | -3.92 |
| A22G A41G A120G G141U | 1.45 |
| A22C U144G | 0.903 |
| A22G C96U C114U A115U | ≤ -4.2 |
| A22U U55A C85G | -2.29 |
| A22U C54U U55A | 0.0331 |
| A22C C85U | -0.656 |
| A22C U33C G88A A97C C131G | ≤ -4.2 |
| A22G U130A | -1.59 |
| A22U C69G C75U C93U U101C U127A | ≤ -4.2 |
| A22U A97G | 0.0508 |
| A23C G59A G92U U104C A113C C123U G124A | ≤ -4.2 |
| A22C G34C U55G A91C G92U | ≤ -4.2 |
| A22U A28G G80C C99U C108A G140C | ≤ -4.2 |
| A22G A91U C95U U109C A137U | ≤ -4.2 |
| A22U C99A | 0.261 |

| Variant | polymerase ribozyme fitness (log ratio) |
| --- | --- |
| A22U C99U | -0.0944 |
| A22G A39C U56A G80U | ≤ -4.2 |
| A23G C36U G50U G100A A107G C118G | ≤ -4.2 |
| A22U U55A A115C C123U U130G | -2.84 |
| A22C C87U | -0.775 |
| A23C C36U A60C G86A A121U | ≤ -4.2 |
| A22G U33G | -3.24 |
| A22U C32A C36A C57U C96G C116U U139G | ≤ -4.2 |
| A22U C32A G42A G48A A52G U148A | ≤ -4.2 |
| A23G G46C G50A G92A C118U A142U | ≤ -4.2 |
| A22U G42C G80A A91G C95G A98U | ≤ -4.2 |
| A23G C57U | -2.27 |
| A23G A26U C54A U90G A91G | ≤ -4.2 |
| A22U G48C C51U C116G G124A A150G | ≤ -4.2 |
| A23C G58A C87U A91U | ≤ -4.2 |
| A22U U31G C54G C85U U146C | -0.611 |
| A23G C27U A29C C32A C36G C85U C95A U127G | -4.14 |
| A22U U82A C96U | 0.375 |
| A22C C114A | -3.5 |
| A22U G133C | -1.46 |
| A22G C54U U56A C76U G94C U145A | -0.624 |
| A22U G46A C79G G80U G92A A150C | ≤ -4.2 |
| A23C C76U C87A | ≤ -4.2 |
| A23G A39U A47C U53G G86C A106G | ≤ -4.2 |

| Variant | polymerase ribozyme fitness (log ratio) |
| --- | --- |
| A22C U45A | -2.58 |
| A23G C35A A142G | -3.78 |
| A22C G59C G83A A89C | -1.16 |
| A22U C57G G58A C114G | -2.5 |
| A22U U134A | -2.01 |
| A22U A41G G81A C87U C99U A119G G152A | -2.3 |
| A23G G50C G84U C85G A150C | -3.98 |
| A22U C96A | -0.026 |
| A22U C96G | -0.148 |
| A22C U53G G94A A119G | -1.81 |
| A22U G141A | 2.05 |
| A23C A39C C76A A97G G143C | -3.82 |
| A22G U33C C35U A66C | ≤ -4.2 |
| A22U A24U G58C A89U G143C | -2.7 |
| A22U G92A C95A C105U | -3.63 |
| A22G C85G | -2.32 |
| A22G C85U | -0.836 |
| A22U C76U U102G | -3.01 |
| A23C C96G | -3.81 |
| A22U C35U A47U G59U G67A C132A G136U | ≤ -4.2 |
| A22U C54U G81A G83A U90A C95U G141C | ≤ -4.2 |
| A23C U31C C99U C123U U134C | ≤ -4.2 |
| A22G C132U | -0.512 |
| A22G C132G | -3.69 |

| Variant | polymerase ribozyme fitness (log ratio) |
| --- | --- |
| A23G | -1.78 |
| A23C | -3.48 |
| A23C A24U C57U G58A U61A C93G C103U C118U | ≤ -4.2 |
| A23C A30C G50A A66G C96A A98U G128C | ≤ -4.2 |
| A22U A28U U45G G50U C103G | ≤ -4.2 |
| A22U U102G | -2.64 |
| A22U A47C C54G G58U | -0.551 |
| A22G A23U C35A C75A C95G | ≤ -4.2 |
| A22U U55A A66C U77A C87A | ≤ -4.2 |
| A22G A24U C63G | 2.39 |
| A22U C27U C36U A98U | -3.64 |
| A22U C95A C96A C99U | -1.54 |
| A22U G46C C114U | -3.67 |
| A22U C114A | -3.29 |
| A23C U44A U45A G74A A91G | ≤ -4.2 |
| A22U G94C C95G C96A A122U | ≤ -4.2 |
| A22U G59A A66U G86A A120G A138G | ≤ -4.2 |
| A23G G25C G50C C57A G58U C85U U144C | ≤ -4.2 |
| A23G A28G A39U A40U U44A U61A U78G C85U U151G | ≤ -4.2 |
| A23G A52G C57U C95A C96G U102G A107G G141A | ≤ -4.2 |
| A22G G58C A119U A122U | 0.574 |
| A23C A98U A113U | -4.18 |
| A22G A52G G128C | -3.48 |
| A22U A39U A41G A52C G83U G94A G152C | -4.02 |

| Variant | polymerase ribozyme fitness (log ratio) |
| --- | --- |
| A22U A37C G83C C114G | -3.92 |
| A23C C87G A91G C99A C103G | ≤ -4.2 |
| A22C G50A U55G U77C G94A | -4.04 |
| A22U C75G | -3.65 |
| A23G A41U C76G G80A A89U G124U | ≤ -4.2 |
| A23G C93U U101A G140U | -3.86 |
| A22U G46C A73U | -3.61 |
| A23G C93U | -3.77 |
| A22U U56A G92A | -3.22 |
| A23G C79G | ≤ -4.2 |
| A22U C57A C96G A97U C118G A119C | -2.85 |
| A22U C54G C95U | -2.06 |
| A23G A40G G42C | ≤ -4.2 |
| A23G A40U A66C U109G U111G C149U | ≤ -4.2 |
| A23C A29C C38U C57G A64C G84U | ≤ -4.2 |
| A22U C54U | 0.174 |
| A23G C76A | -2.49 |
| A22U A37G A49C G62U C75G C76A G81U C85G G128C | ≤ -4.2 |
| A23C C27G A60G A97C G124U | ≤ -4.2 |
| A22U A23G G50A G86A C116G U130G C131G | ≤ -4.2 |
| A23G A40G G50U C76A G84C | ≤ -4.2 |
| A22C G50A C63A C69G A89G U127G G141U A142U | ≤ -4.2 |
| A23C A24C U61G A110U | ≤ -4.2 |
